These results are taken from article PMC8588562, “Layer-by-Layer Encapsulation of Herbicide-Degrading Bacteria for Improved Surface Properties and Compatibility in Soils” (Polymers, 2021).

The data set concerns CCNc1nc(Cl)nc(NC(C)C)n1. The data set is described as follows: cells, lysate or membranes. Particulars: apparent, whole uncoated E. coli cells (free cells), PBS (0.1 M, pH 7.4), room temperature, 20 min, 2.5 mg/mL cells, ATZ 1-20 mg/L.

As for “atrazine chlorohydrolase (AtzA) (Pseudomonas sp. ADP)”, the Km (usually the substrate concentration at which the rate is half of its maximum) is reported as 89.12 ± 29.48 µM.
